In US20190060480A1 (NATIONAL CANCER CENTER JAPAN, published 2019):
Positions count from the first letter of the chain named. One block for each binder: values may come before it.

What was measured:
[1] = biological target: T1, human transmembrane protein 180 (TMEM-180) (human, UniProt Q14CX5 1-517); assay: flow cytometry on cancer cell lines, hybridoma supernatant
T1 construct: Membrane protein; also called TMET-180
T1 sequence: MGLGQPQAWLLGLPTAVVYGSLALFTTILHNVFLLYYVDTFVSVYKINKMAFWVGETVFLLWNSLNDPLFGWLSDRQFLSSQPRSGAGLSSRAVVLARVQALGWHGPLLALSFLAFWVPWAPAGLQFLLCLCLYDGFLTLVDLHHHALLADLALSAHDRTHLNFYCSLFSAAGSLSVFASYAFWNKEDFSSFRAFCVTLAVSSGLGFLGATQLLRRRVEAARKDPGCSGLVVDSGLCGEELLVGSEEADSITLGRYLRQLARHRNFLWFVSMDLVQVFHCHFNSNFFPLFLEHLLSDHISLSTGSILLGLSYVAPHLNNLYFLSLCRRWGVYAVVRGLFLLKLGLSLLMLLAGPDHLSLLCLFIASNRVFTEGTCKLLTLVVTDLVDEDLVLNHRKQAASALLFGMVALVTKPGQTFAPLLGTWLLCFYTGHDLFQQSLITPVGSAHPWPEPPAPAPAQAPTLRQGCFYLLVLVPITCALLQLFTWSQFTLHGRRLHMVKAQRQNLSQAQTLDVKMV
Procedure: The plate was centrifuged for 3 minutes at 440×g and 4° C. followed by removing the supernatant, adding antibody-producing hybridoma culture supernatant or antibody solution to the cell pellet at 50 μL/well and suspending therein. After allowing to react for 45 minutes on ice, the plate was washed three times with a mixture of 0.1% BSA, 2 mM EDTA and PBS at 200 μL/well. The supernatant was removed and secondary antibody was added to the cell pellet at 50 μL/well followed by suspending the cells therein. AlexaFluor 647 goat anti-rat IgG (H-L) (Life Technologies Corporation) was used for the secondary antibody after diluting 400-fold with a mixture of 0.1% BSA, 2 mM EDTA and PBS. After allowing to react for 45 minutes on ice, the plate was washed three times with a mixture of 0.1% BSA, 2 mM EDTA and PBS at 200 μL/well. After removing the supernatant, 50 ng/mL of propidium iodide, 0.1% BSA, 2 mM EDTA and PBS were added to the cell pellet at 250 μL/well followed by suspending therein. The cells stained in this manner were measured using a flow cytometer such as the Guava easyCyte 8HT (Merck Millipore Corporation) followed by analysis of the resulting data using FlowJO (Tomy Digital Biology Co., Ltd.). FACS analysis was carried out using colon cancer, brain tumor and hematologic cancer.
(§1) Flow cytometry was carried out in accordance with the procedure described in the above-mentioned section 3. […] The supernatant of a culture of hybridoma producing rat IgM antibody clone 365 was used as a negative control after similarly diluting to 1 μg/mL. […] A mixture of RPMI and 10% FBS was used to dilute each of the antibodies. Furthermore, antibody concentration in the hybridoma culture supernatant was measured by rat IgM-specific ELISA (Bethyl Laboratories).

[2] = biological target: T1, human transmembrane protein 180 …; assay: flow cytometry, DLD-1 parent line against TMEM-180 knockout line (considerable left shift in the knockout)
Procedure: After removing the supernatant, 50 ng/mL of propidium iodide, 0.1% BSA, 2 mM EDTA and PBS were added to the cell pellet at 250 μL/well followed by suspending therein. The cells stained in this manner were measured using a flow cytometer such as the Guava easyCyte 8HT (Merck Millipore Corporation) followed by analysis of the resulting data using FlowJO (Tomy Digital Biology Co., Ltd.). FACS analysis was carried out using colon cancer, brain tumor and hematologic cancer.
as §1

[3] = biological target: T1, human transmembrane protein 180 …; assay: FACS on cancer-derived cell lines (Table 23)

- binding result [1]: binds
B1: anti-TMEM-180 antibody clone 212 (antibody, V domains shown)
VH: EVQLVESGGGLVQPGNSLKLSCAASGFTFSDYAMAWVRQSPKKGLEWVATIIYDGSSTYYRDSVKGRFTISRDNAKSTLYLQMDSLRSEDTATYYCATHWYWYFDFWGPGTMVTVSS
VL: DIQMTQSPASLSASLGETVSIECLASEGISNDLAWYQQKSGKSPQLLIYAASRLQDGVPSRFSGSGSGTRYSLKISGMQPEDEADYFCQQSYKYPLTFGSGTKLEIK
notes: Rat IgM

- binding result [1]: binds
B2: rat IgM antibody clone 101 (antibody, V domains shown)
VH: QVQLKETGPGLVQPTQTLSITCTVSGFSLTSYYMQWVRQTPGKGLEWMGFIRSGGSTEYNSEFKSRLSISRDTSKNQVFLKMNSLKTEDTGVYYCARAFYGGYYFDYWGQGVMVTVSS
VL: DIVMTQSPTSISISVGERVTMNCKASQNVGSNVDWYQQKTGQSPKLLIYKASNRYTGVPDRFTGSGSGTDFTFTISNMQAEDLAVYYCMQSNTKYTFGAGTKLELK
notes: Rat IgM

- binding result [1]: binds
B3: rat IgM antibody clone 98 (antibody, V domains shown)
VH: QVQLKESGPGLVQPSQTLSLTCTVSGFSLTRYNVHWVRQPTGKGLEWMGVIWTGGSTDYNSALKSRLSISRDTSKSQVFLKMNSLQTEDIATYYCARDLGYWGQGVMVTVSS
VL: DIVMTQTPLSLSVAIGQSASISCKSSQSLKYRDGKTYLNWVFQSPGQSPKRLIYQVSKLDSGVPDRFSGTGSETDFTLKISRVEAEDLGVYYCCQGSYSPHTFGAGTKLELK
notes: Rat IgM from a hybridoma; also called 98 antibody; IgM 98

- binding result [2]: binds
B4: rat-human chimeric antibody clone 98 (antibody, IgG1, V domains shown)
VH: B3 VH
VL: B3 VL
notes: Clone 98 variable regions on human constant regions (IgG1), expressed in 293T cells; also called human chimeric IgG1 antibody; human chimeric IgG antibody

- binding result [3]: binds
B5: anti-TMEM-180 antibody clone 1052 (antibody, V domains shown)
VH: QVQLKESGPGLMQPSETLSLTCTVSGFSLTSNGVGWVRQPLGKGLVWMGTIWTGGGTNYNSGVQSRLSISRDTSKSQVFLKMNSLQPEDTGTYYCAREYMGFDYWGQGVMVTVSS
VL: NTVMTQSPTSMFTSVGDRVTMSCKASQNVGINVGWYQQKTGQSPKRLIYWASNRDTGVPDRFTGSGSGTDFTLTISNMQAEDPAIYYCLQHNSYPRTFGGGTKLELK
notes: Rat IgM; also called 1052 antibody

- binding result [3]: binds
B6: anti-TMEM-180 antibody clone 1105 (antibody, V domains shown)
VH: B5 VH with T53S, G62A, S70T, Y99E, M100K, D103A, V109T, M110L
VL: B5 VL with T2I, F12S, T97A, K107R
notes: Rat IgM; also called 1105 antibody
